The results in this text go back to article PMC4669500, “Characterization of Pseudooxynicotine Amine Oxidase of Pseudomonas putida S16 that Is Crucial for Nicotine Degradation” (Scientific Reports, 2015).

One series has as its system CNCCCC(=O)c1cccnc1. As to the kind of experiment: purified protein. Format: biochemical, Pseudomonas putida. The note with it: 30 °C, 25 mM sodium phosphate pH 8.5, O2 as oxidant.
For series [1], the target named is T1, Pnao (pseudooxynicotine amine oxidase) (Pseudomonas putida, UniProt F8G0P1).
T1 construct: full-length, His6-tagged (pET28a NcoI-XhoI, tag kept), expressed in E. coli C43(DE3), about 54 kDa; FAD-containing
The series is described as follows: HPLC and UV-Vis of cofactor released by boiling purified protein. Format: binding. The conditions noted are these: co-purified cofactor, non-covalent (released by boiling).

T1 sequence (F8G0P1 whole entry): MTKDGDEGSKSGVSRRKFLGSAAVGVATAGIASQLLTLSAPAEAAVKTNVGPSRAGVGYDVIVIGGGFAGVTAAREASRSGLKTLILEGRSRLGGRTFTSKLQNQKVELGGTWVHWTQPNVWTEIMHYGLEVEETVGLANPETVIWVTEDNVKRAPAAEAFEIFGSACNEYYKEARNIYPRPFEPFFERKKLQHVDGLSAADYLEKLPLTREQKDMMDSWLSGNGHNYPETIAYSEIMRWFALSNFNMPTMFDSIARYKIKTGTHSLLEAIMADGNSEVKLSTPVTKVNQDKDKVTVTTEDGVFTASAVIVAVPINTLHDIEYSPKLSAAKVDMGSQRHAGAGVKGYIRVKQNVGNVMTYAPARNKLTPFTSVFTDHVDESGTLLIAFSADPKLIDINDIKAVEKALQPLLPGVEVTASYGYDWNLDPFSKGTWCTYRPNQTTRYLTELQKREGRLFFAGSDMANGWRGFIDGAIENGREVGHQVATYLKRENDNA

With “Pnao (pseudooxynicotine amine oxidase) (Pseudomonas putida S16)”, in the series on CNCCCC(=O)c1cccnc1, the Km was 73 ± 18 µM and the kcat worked out at 0.790 ± 0.074 s⁻¹. As to `Cc1cc2nc3c(=O)[nH]c(=O)nc-3n(C[C@H](O)[C@H](O)[C@H](O)COP(=O)(O)OP(=O)(O)OC[C@H]3O[C@@H](n4cnc5c(N)ncnc54)[C@H](O)[C@@H]3O)c2cc1C` [FAD, Flavin adenine dinucleotide], in series [1], the “HPLC and UV-Vis of cofactor released by boiling purified protein” value was “These results indicated that FAD was the cofactor associated with Pnao”.

For orientation: Km means the substrate concentration at which the rate is half of its maximum. The term kcat denotes the number of substrate molecules converted per active site and unit of time at saturation.
